Test results published in patent US20260274985A1 (MYTHIC THERAPEUTICS, published 2026).
Substitutions are numbered along the chain they refer to.

T1: Human TROP2 Protein, His Tag (Acro Biosystems) (human, UniProt P09758 27-274)
T1 construct: not shown: His tag
T1 sequence (looked up): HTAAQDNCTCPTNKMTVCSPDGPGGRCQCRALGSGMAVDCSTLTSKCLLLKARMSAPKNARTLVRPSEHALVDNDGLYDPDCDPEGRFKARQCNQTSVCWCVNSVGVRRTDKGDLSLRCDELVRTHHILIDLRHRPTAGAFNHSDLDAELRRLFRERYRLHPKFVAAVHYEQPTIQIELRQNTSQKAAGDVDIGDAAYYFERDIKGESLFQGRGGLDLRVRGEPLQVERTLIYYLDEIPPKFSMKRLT

T2: Human TROP2 Protein, His Tag (Acro Biosystems) (human, UniProt P09758 27-274)
T2 construct: Bought protein; not shown: His tag
T2 sequence (looked up): T1 sequence (looked up)

B1: MYT13290 (antibody, V domains shown)
VH: QVQLQESGPGLVKPSETLSLTCTVSGGSISSYGVHWIRQPPGKGLEWIGVIWTSGVTDYNSALMGRVTISVDTSKNQFSLKLSSVTAADTAVYYCARDGDYDRYTHDYWGQGTLVTVSS
VL: DIVMTQSPDSLAVSLGERATINCRASKSVSTSGYSYMHWYQQKPGQPPKLLIYLASNLESGVPDRFSGSGSGTDFTLTISSLQAEDVAVYYCHHSRELPYTFGQGTKLEIK
notes: Full-length IgG; also called h7E6SVG HC-LC pairing variant
B2: MYT11567 (antibody, V domains shown)
VH: QVQLQQSGSELKKPGASVKVSCKASHYTFTNYGMNWVKQAPGQGLKWMGWINTYTGEPTYTDDFKGRFAFSLDTSVSTAYLQISSLKADDTAVYFCARGGFGSSYWYFDVWGQGSLVTVSS
VL: DIQLTQSPSSLSASVGDRVSITCKASQDVSIAVAWYQQKPGKAPKLLIYSASYRYTGVPDRFSGSGSGTDFTLTISSLQPEDFAVYYCQQHYITPLTFGAGTKVEIK
notes: Sacituzumab variant, His at HCV position 26 (H1 01)
B3: MYT11577 (antibody, V domains shown)
VH: B2 VH with H26G, W50H
VL: B2 VL
B4: MYT11572 (antibody, V domains shown)
VH: B2 VH with H26G, N31H
VL: B2 VL
notes: Sacituzumab variant, His at HCV position 31 (H1 06)
B5: MYT13368 (antibody, V domains shown)
VH: B2 VH with H26G, Y60H
VL: B2 VL with S30H, V33H
notes: IgG; also called Sacituzumab HC-LC pairing variant
B6: MYT11586 (antibody, V domains shown)
VH: B2 VH with H26G, T59H
VL: B2 VL
notes: Sacituzumab variant, His at HCV position 59 (H2 10)
B7: MYT11580 (antibody, V domains shown)
VH: B2 VH with H26G, T53H
VL: B2 VL
notes: Sacituzumab variant, His at HCV position 53 (H2 04)
B8: MYT11590 (antibody, V domains shown)
VH: B2 VH with H26G, D63H
VL: B2 VL
notes: Sacituzumab variant, His at HCV position 63 (H2 14)
B9: MYT13429 (antibody, V domains shown)
VH: B2 VH with H26G, G66H
VL: B2 VL with S30H, A51H, I93H
notes: as for B5
B10: MYT11595 (antibody, V domains shown)
VH: B2 VH with H26G, R98H
VL: B2 VL
notes: Sacituzumab variant, His at HCV position 98 (H3 02)
B11: MYT13426 (antibody, V domains shown)
VH: B2 VH with H26G, D63H
VL: B2 VL with S30H, A51H, I93H
notes: as for B5
B12: MYT11575 (antibody, V domains shown)
VH: B2 VH with H26G, M34H
VL: B2 VL
notes: Sacituzumab variant, His at HCV position 34 (H1 09)
B13: MYT11581 (antibody, V domains shown)
VH: B2 VH with H26G, Y54H
VL: B2 VL
notes: Sacituzumab variant, His at HCV position 54 (H2 05)
B14: MYT11584 (antibody, V domains shown)
VH: B2 VH with H26G, E57H
VL: B2 VL
notes: Sacituzumab variant, His at HCV position 57 (H2 08)
B15: MYT11571 (antibody, V domains shown)
VH: B2 VH with H26G, T30H
VL: B2 VL
notes: Sacituzumab variant, His at HCV position 30 (H1 05)
B16: MYT11578 (antibody, V domains shown)
VH: B2 VH with H26G, I51H
VL: B2 VL
notes: Sacituzumab variant, His at HCV position 51 (H2 02)
B17: MYT11569 (antibody, V domains shown)
VH: B2 VH with H26G, T28H
VL: B2 VL
notes: Sacituzumab variant, His at HCV position 28 (H1 03)
B18: MYT11568 (antibody, V domains shown)
VH: B2 VH with H26G, Y27H
VL: B2 VL
notes: Sacituzumab variant, His at HCV position 27 (H1 02)
B19: MYT11570 (antibody, V domains shown)
VH: B2 VH with H26G, F29H
VL: B2 VL
notes: Sacituzumab variant, His at HCV position 29 (H1 04)
B20: MYT11596 (antibody, V domains shown)
VH: B2 VH with H26G, G99H
VL: B2 VL
B21: MYT11573 (antibody, V domains shown)
VH: B2 VH with H26G, Y32H
VL: B2 VL
B22: MYT13424 (antibody, V domains shown)
VH: B2 VH with H26G, Y60H
VL: B2 VL with S30H, A51H, I93H
notes: as for B5
B23: MYT11589 (antibody, V domains shown)
VH: B2 VH with H26G, D62H
VL: B2 VL
B24: MYT13433 (antibody, V domains shown)
VH: B2 VH with H26G, D62H
VL: B2 VL with A51H, Y53H, I93H
notes: as for B5
B25: MYT11576 (antibody, V domains shown)
VH: B2 VH with H26G, N35H
VL: B2 VL
notes: Sacituzumab variant, His at HCV position 35 (H1 10)
B26: MYT11593 (antibody, V domains shown)
VH: B2 VH with H26G, G66H
VL: B2 VL
B27: MYT11582 (antibody, V domains shown)
VH: B2 VH with H26G, T55H
VL: B2 VL
notes: Sacituzumab variant, His at HCV position 55 (H2 06)
B28: MYT11588 (antibody, V domains shown)
VH: B2 VH with H26G, T61H
VL: B2 VL
notes: Sacituzumab variant, His at HCV position 61 (H2 12)
B29: MYT11592 (antibody, V domains shown)
VH: B2 VH with H26G, K65H
VL: B2 VL
B30: MYT11585 (antibody, V domains shown)
VH: B2 VH with H26G, P58H
VL: B2 VL
notes: Sacituzumab variant, His at HCV position 58 (H2 09)
B31: MYT13160 (antibody, V domains shown)
VH: B2 VH with H26G, Y32H
VL: B2 VL with S30H
notes: as for B5
B32: MYT11591 (antibody, V domains shown)
VH: B2 VH with H26G, F64H
VL: B2 VL
notes: Sacituzumab variant, His at HCV position 64 (H2 15)
B33: MYT11579 (antibody, V domains shown)
VH: B2 VH with H26G, N52H
VL: B2 VL
notes: Sacituzumab variant, His at HCV position 52 (H2 03)
B34: MYT11594 (antibody, V domains shown)
VH: B2 VH with H26G, A97H
VL: B2 VL
notes: Sacituzumab variant, His at HCV position 97 (H3 01)
B35: MYT11587 (antibody, V domains shown)
VH: B2 VH with H26G, Y60H
VL: B2 VL
B36: MYT11574 (antibody, V domains shown)
VH: B2 VH with H26G, G33H
VL: B2 VL

Key:
[1] = target: T1, Human TROP2 Protein, His Tag (Acro …); experiment: Octet (BLI); antigen and pH not given
[2] = target: T2, Human TROP2 Protein, His Tag (Acro …); experiment: BLI (Octet)
Procedure: After allowing for four days of protein expression, cell culture supernatants were collected, quantified by SDS-PAGE analysis (DNS), and the pH dependence of the variant was evaluated using biolayer interferometry (BLI) on an Octet RED 96e instrument. Briefly, cell culture supernatants were diluted based on qualitative expression level of the variant determined by visual examination of SDS-PAGE gels, 5 μL of cell culture supernatant was diluted into 195 μL of 1×PBST, pH 7.4 for high expressors, 25 μL of cell culture supernatant was diluted into 175 μL of 1×PBST, pH 7.4 for medium expressors and 100 μL of cell culture supernatant was diluted into 100 μL of 1×PBST, pH 7.4 for low expressors for loading onto the sensor tips. The resulting diluted supernatants were then captured on an anti-human Fc sensor (Forte Bio). A baseline was established using 1×PBST (50 mM Potassium Phosphate Buffer+150 mM NaCl+0.05% Tween 20) pH 7.4, and the sensor was associated with 50 nM of TROP2 (Human TROP2 Protein, His Tag, Acro Biosystems) in 1×PBST pH 7.4 for 120 sec to generate an association curve. In the dissociation phase, the antibody-antigen complex on the sensor was exposed to 1×PBST pH 7.4 or pH 5.4, for 300 sec. Association and dissociation phase curves were examined for the starting ABPC antibody (with no substitutions) and each corresponding antibody variant at pH 5.4 and pH 7.4 to inform on two criteria: a) enhanced dissociation (i.e., higher koff values) at pH 5.4 due to histidine or alanine substitution compared to the starting ABPC, (with no substitutions), and b) reduced dissociation at pH 7.4 (i.e., lower koff values) compared to pH 5.4 in the antibody variant itself and with the starting ABPC (with no substitutions). […] It was also noted that while some mutations obliterated TROP2 binding, others were tolerated with little or n change in TROP2 binding kinetics.

| Binder | Kd [1] [nM] | Octet response at 33.33 nM (Y-Axis) nm [1] [nm] | binding result [2] |
| --- | --- | --- | --- |
| B1 | 7.45 | 0.103 | – |
| B2 | – | – | binds |
| B3 | – | – | binds |
| B4 | – | – | binds |
| B5 | 1.03 | 0.14 | – |
| B6 | – | – | binds |
| B7 | – | – | binds |
| B8 | – | – | binds |
| B9 | 2.85 | 0.122 | – |
| B10 | – | – | binds |
| B11 | 1.51 | 0.132 | – |
| B12 | – | – | binds |
| B13 | – | – | binds |
| B14 | – | – | binds |
| B15 | – | – | binds |
| B16 | – | – | binds |
| B17 | – | – | binds |
| B18 | – | – | binds |

| Binder | Kd [1] [nM] | Octet response at 33.33 nM (Y-Axis) nm [1] [nm] | binding result [2] |
| --- | --- | --- | --- |
| B19 | – | – | binds |
| B20 | – | – | binds |
| B21 | – | – | binds |
| B22 | 1.97 | 0.123 | – |
| B23 | – | – | binds |
| B24 | 4.36 | 0.12 | – |
| B25 | – | – | binds |
| B26 | – | – | binds |
| B27 | – | – | binds |
| B28 | – | – | binds |
| B29 | – | – | binds |
| B30 | – | – | binds |
| B31 | 0.009 | 0.077 | – |
| B32 | – | – | binds |
| B33 | – | – | binds |
| B34 | – | – | binds |
| B35 | – | – | binds |
| B36 | – | – | binds |
